In US20260226144A1 (NEPHRIS, published 2026):

T1: mouse NBL1 (mouse, UniProt Q61477 17-178, limits assumed)
T1 sequence (looked up): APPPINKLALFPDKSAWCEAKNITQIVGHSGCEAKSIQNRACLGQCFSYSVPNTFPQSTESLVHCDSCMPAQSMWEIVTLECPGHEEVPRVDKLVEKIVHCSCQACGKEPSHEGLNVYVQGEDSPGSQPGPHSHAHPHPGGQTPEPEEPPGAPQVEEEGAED

T2: native murine NBL1 (murine, UniProt Q61477 17-178)
T2 construct: Endogenous protein, not recombinant; also called murine plasma NBL1; murine splenocyte NBL1
T2 sequence (looked up): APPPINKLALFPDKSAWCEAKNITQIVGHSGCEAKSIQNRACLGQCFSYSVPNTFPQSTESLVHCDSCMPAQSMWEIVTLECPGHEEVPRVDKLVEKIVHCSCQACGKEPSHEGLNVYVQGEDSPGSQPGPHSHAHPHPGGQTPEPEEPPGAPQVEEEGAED

T3: native human NBL1 (human, UniProt P41271 17-181, limits assumed)
T3 construct: Endogenous protein in permeabilized PBMCs of healthy volunteers; also called native human NBL1 found in human PBMCs
T3 sequence (looked up): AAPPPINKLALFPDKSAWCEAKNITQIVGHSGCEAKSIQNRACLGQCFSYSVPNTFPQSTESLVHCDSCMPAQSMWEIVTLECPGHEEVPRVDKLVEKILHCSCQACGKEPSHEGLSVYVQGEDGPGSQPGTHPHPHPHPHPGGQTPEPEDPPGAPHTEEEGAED


Legend:
[1] = target: T1, mouse NBL1; test: ELISA, IgG1 format
[2] = target: T2, native murine NBL1; test: sandwich ELISA on native murine plasma NBL1
Method: Binding of the mAbs to native murine plasma NBL1 was performed using a sandwich ELISA, as illustrated in FIG. 11A.

[3] = target: T3, native human NBL1; test: immunotargeted assay on permeabilized human PBMCs, FACS
From the text: PBMCs were isolated from blood samples of healthy volunteers.

[4] = target: T2, native murine NBL1; test: immunotarget assay on permeabilized murine splenocytes, FACS

binding result [1]	binding result [2]	binding result [3]	binding result [4]	Binder
binds	–	–	–	Antibody YU1018-C11 (antibody, V domains shown) VH: QVQLVQSGGGLVQPGGSLRLSCAASGFTFSSYAMSWVRQAPGKGLEWVSAISGSGGSTYYADSVKGRFTISRDNSKNTLYLQMNSLRAEDTAVYYCARGGFWGSYRYWSAAFDIWGQGTMVTVSS VL: not shown
binds	–	–	–	Antibody YU1018-G01 (antibody, human IgG1, V domains shown) VH: QVQLVQSGAEVKKPGASVKVSCKASGYTFTSYAMHWVRQAPGQRLEWMGWINAGNGNTKYSQKFQGRVTITRDTSASTAYMELSSLRSEDTAVYYCARGRELLTFDYWGQGTLVTVSS VL: not shown
binds	–	–	–	Antibody YU1018-D12 (antibody, V domains shown) VH: EVQLVQSGAEVKKPGASVKVSCKASGYTFTSYGISWVRQAPGQGLEWMGWISAYNGNTNYAQKLQGRVTMTTDTSTSTAYMELRSLRSDDTAVYYCARDVGYSYGIFDYWGQGTLVTVSS VL: not shown
binds	–	–	–	Antibody YU1018-D08 (antibody, human IgG1, V domains shown) VH: QVQLVQSGAEVKKPGSSVKVSCKASGGTFSSYAISWVRQAPGQGLEWMGGIIPIFGTANYAQKFQGRVTITADKSTSTAYMELSSLRSEDTAVYYCARDRYYDSSGYYLMDPWGQGTLVTVSS VL: not shown
binds	binds	binds	–	Antibody YU1019-A12 (antibody, human IgG1, V domains shown) VH: EVQLLESGPGLVKPSQTLSLTCTVSGGSISSGDYYWSWIRQPPGKGLEWIGYIYYSGSTYYNPSLKSRVTISVDTSKNQFSLKLSSVTAADTAVYYCARGRRLLLFHWGQGTTVTVSS VL: QSVLTQPPSVSAAPGQKVTISCSGSGSSIGNNYVSWYQQVPGTPPKLLIYDNNKRASGIPDRFSGSKSGTSATLGITGLQTGDEADYYCGTWDNSLSAVVFGGGTKLTVL
binds	–	–	–	Antibody YU1018-D06 (antibody, human IgG1, V domains shown) VH: QVQLVESGPGLVKPSQTLSLTCTVSGGSISSGGYYWSWIRQHPGKGLEWIGYIYYSGSTYYNPSLKSRVTISVDTSKNQFSLKLSSVTAADTAVYYCARSGAAGIPWFDPWGQGTLVTVSS VL: QSVLTQPPSVSAAPGQKVTISCSGSSSNIGNNYVSWYQQLPGTAPKLLIYENNERPSGIPDRLSGSKSGTSATLAITGLQTGDEADYYCGTWDSSLSAVVFGGGTKLTVL
binds	–	–	–	Antibody YU1018-E01 (antibody, human IgG1, V domains shown) VH: QVQLVQSGAEVKKPGASVKVSCKASGYTFTSYGISWVRQAPGRGLEWMGWISAYNGNTNYAQKLQGRVTMTTDTSTSTAYMELRSLRSDDTAVYYCARGPRDGYNDYWGQGTLVTVSS VL: not shown
binds	–	binds	binds	Antibody YU1019-B06 (antibody, human IgG1, V domains shown) VH: EVQLLESGGGVVQPGRSLRLSCAASGFTFSSYAMHWVRQAPGKGLEWVAVISYDGSNKYYADSVKGRFTISRDNSKNTLYLQMNSLRAEDTAVYYCASPVLRYFDWLPNYWGQGTLVTVSS VL: not shown
binds	–	–	–	Antibody YU1018-E07 (antibody, V domains shown) VH: EVQLLESGGGVVQPGRSLRLSCAASGFTFSSYAMHWVRQAPGKGLEWVAVISYDGSNKYYADSVKGRFTISRDNSKNTLYLQMNSLRAEDTAVYYCASPVLRYFDWLPNYWGQGTTVTVSS VL: not shown
binds	–	binds	binds	Antibody YU1018-E04 (antibody, human IgG1, V domains shown) VH: QVQLVQSGAEVKKPGESLKISCKGSGYSFTSYWIGWVRQMPGKGLEWMGIIYPGDSDTRYSPSFQGQVTISADKSISTAYLQWSSLKASDTAMYYCARAIVGATSGYWFDPWGQGTLVTVSS VL: not shown
